According to article PMC4007455:

What was measured:
[1] = target: RNA polymerase II in isolated early elongation complexes (human (endogenous in HeLa)) (UniProt P24928)
[2] = target: RNA polymerase II in isolated early elongation complexes (human (endogenous in HeLa)) (UniProt P24928); remark: listed apart in the source

Row | Substance | block of TFIIF (0.1 pmol)-dependent runoff by 1 pmol ΔLPDKG mutant, in vitro transcription on isolated EECs, 7-min chase (blocks TFIIF acting on Pol II) [1] | termination region as percent of total counts with TTF2 (0.04 pmol) and 1 pmol ΔLPDKG mutant (72% with TTF2 alone), in vitro transcription on isolated EECs (blocks TTF2 acting on Pol II) (% of the total counts) [1] | amount of Gdown1 CTD titrated onto EECs that completely blocks elongation stimulation by 0.1 pmol TFIIF, in vitro transcription, 7-min chase [2]
1 | Gdown1 ΔLPDKG deletion mutant (from UniProt P0CAP2-1 1-368) (natural protein) | 90% | 50 | 
2 | Gdown1 CTD(197–368) (from UniProt P0CAP2-1 197-368) (domain or fragment) |  |  | 20 pmol
